Reference: paper PMC3667858 (PLoS ONE, 2013)

Legend:
[1] = molecular target: T1, FMDV Asia 1 virus-like particles (VLPs) (Foot-and-mouth disease virus serotype …, UniProt A2I7M2); assay: SPR; details: both partners purified
T1 construct: also called Asia 1 VLPs antigen; recombinant VLPs; copies: + +

[2] = molecular target: T2, FMDV Asia 1 virions in infected BHK-21 cells (Foot-and-mouth disease virus serotype …, UniProt A2I7M2, strain); assay: immunostaining of cells or tissue; details: one partner purified
T2 construct: also called FMD virions; FMD Asia 1 virions; copies: + + +

Binder | Kd [1] [nM] | koff [1] [s⁻¹] | kon [1] [M⁻¹ s⁻¹] | binding result [2]
sdAb-C6 (VHH, also called clone 6; sdAb-6) VHH: HVQLVESGGGSVQAGGSLRLSCTYSVYTYSSDSMAWFRQAPGKEREGVAGIYIGSGSTLYADSVKGRFTISQDKAKNTVYLQMNSLKPEDTALYYCAAGGNWYDGVLNVERAFAYWGQGTQVTVSS | 0.44 | 0.000703 | 1.6e+06 | –
Alexa Fluor-488-conjugated-sdAb-C6 (VHH, also called AF488-C6; AF488-C6 probe) VHH: HVQLVESGGGSVQAGGSLRLSCTYSVYTYSSDSMAWFRQAPGKEREGVAGIYIGSGSTLYADSVKGRFTISQDKAKNTVYLQMNSLKPEDTALYYCAAGGNWYDGVLNVERAFAYWGQGTQVTVSS | – | – | – | binds
QDs-C6 probe (VHH, also called QD-sdAb probe; QDs-sdAb) VHH: HVQLVESGGGSVQAGGSLRLSCTYSVYTYSSDSMAWFRQAPGKEREGVAGIYIGSGSTLYADSVKGRFTISQDKAKNTVYLQMNSLKPEDTALYYCAAGGNWYDGVLNVERAFAYWGQGTQVTVSS | – | – | – | binds
